A short description of this series: yeast display, Sf9 membrane polyspecificity reagent, FACS + sequencing; frameworks hold sequencing errors. A digest of the protocol:
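Synthetic nanobody libraries on Saccharomyces cerevisiae BJ5465 were galactose-induced for 36–48 hours, stained 1 hour at 4 °C with 10% biotinylated, detergent-solubilized Sf9 membrane reagent and enriched on streptavidin microbeads. FACS then separated cells into low and high (top ~1%) gates by anti-HA (expression) and streptavidin (reagent binding) fluorescence. Genes were colony-PCR amplified, MiSeq 2 × 250 sequenced and CDR-length filtered. A clone's polyreactivity label is that of its gate of origin.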
Turning to “QVQLVESRGGLVQAGGSLRLSCAASGSTCFTNDMGWYRQAPGTERELVASISPSTGSTYYADSVKGRVTISRDNAKNTVSLQMNSLKPDDTAVYYCAADEWYYSYNDGNLYDYWGQGTQVTVSS”, the “polyreactivity (PSR sort gate)” value was “low polyreactivity”.
Turning to “QVQLVESRGGLVQAGGSLRLSCAASGSTFFRYAMGWYRQAPGKERELVAAITDSDGSTYYADSVKGRFTISRDNAKNTVYLQMNSLKPEDTAVYYCAAAHPDGWTVYNPQGGAWYDYWGQGSQVTVSS”, the “polyreactivity (PSR sort gate)” value is reported as “low polyreactivity”.
Regarding “QVQLVESRGGLVQAGGSLRLSCAASGSTFKPNAMGWYRPAPGKERELVAAITSGSTYYADSVKGRFTISRDNAKNTVYLQMNSLKPEDTAVYYCATSFRGKSPYRNSGSYYYWGQGTQVTVSS”, the “polyreactivity (PSR sort gate)” value is “high polyreactivity”.
On to “QVQLVESRGGLVQAGGSLRLSCAASGSTFRTYAMGWYRQAPGKERELVADITWRGGSTYYADSVKGRFTISRDNAKNTVYLQMNSLKPEDTAVYYCATDRGPEVVLYDYWGQGTQVTVSS”, for which the “polyreactivity (PSR sort gate)” value was “low polyreactivity”.
As to “QVQLVESRGGLVQAGGSLRLSCAASGSTFSVYAMGWYRQAPGKERELVADITRGGSTYADSVTGRFTISRDNAKNTVYLQMNSLKPEDTAVDYCARAEVTPYPLYWSTREYDYWGQGTQVTVSS”, the “polyreactivity (PSR sort gate)” value is “low polyreactivity”.
The result for “QVQLVESRGGLVQAGGSLRLSCAASGSTFYAYAMGWYRQAPGKERDLVAAISSSGGSTYYADSVKGRFTISRDNAKNTVYLQMNSLKTEDTAVYYCAAYDSVQKYWILGFDYWGQGTQVTVSS” reads “low polyreactivity”; that for “QVQLVESRGGLVQAGGSLRLSCAASGSTILQYAMGWYRQAPGNERELVAAIRFSTGTTYYADSVKGRFTISRDTANNTVYLQMNSLKPEDTAVYYCAALARTRGRKYGYWGHGTQVTVSS”, “high polyreactivity”.
Then “QVQLVESRGGLVQAGGSLRLSCAASGSTSRTYAMGWYRQAPGKEMELVAAISSSGGRTYYADSVKGRFTISRDNAKNTVYLLMNSLKPEDTAVYYCNARTYSYRGYNYWGQGTQVTVSS”, with “high polyreactivity”.
Regarding “QVQLVESRGGLVQAGGSLRLSCSASGLTIWRYAMGWYRHEPGKEWEFVATISQNGGRTYYADSVKGRFTISRDNAKNTVYLQMNSLKPEDTAVYYCAADDWRWGYDYWGQGTQVTVSS”, the “polyreactivity (PSR sort gate)” value is given as “high polyreactivity”.
Consider “QVQLVESRGGLVQAGGSLRLSFAASGSNFGAYAMVWYRQAPGKERELVAGITGSGGTTYYADSVKGRFTISRDNGKNTVYLQMNSLTPEDTAVYDCAKRVWVRYYYWGQGTQVTVSS”, for which the “polyreactivity (PSR sort gate)” value is “high polyreactivity”.
Then “QVQLVESRGGLVQAGGSLRLSFPASGSTFYKYAKGWYRQAPGKERELVASISRRAGSTYYADSVKGRFTISRDNAKNTVDVQMTSLKPEDTAVYYCAAVGRYDRVFDYDYWGQGTQVTVSS”, with “high polyreactivity”; and “QVQLVESRGGLVQAGRSLRLSCAASGITFYSYAMGWYRQEPGKERELVAAITLTGGTTYYADSVKGRFTISRDNAKNTVYLQMNSLKPEDTAVYYCAAQYWWWSRFEYDSCGQGTQVTVSS”, with “low polyreactivity”; and “QVQLVESRGRLVQAGGSLRLSCAASGSIFVGNAMGWYRQAPGKERELVAAISSGGSTYYADSVKGRFTISRDNAKNTVYLQMNSLKPEDTAVYFGAAYYVRRYSSRPKDDYWGQGTQVSVSS”, with “low polyreactivity”.
The result for “QVQLVESRGRLVQAGGSLRLSCAASGYTFNHNAMGWYRPAPGKETELVAVITPRAGSTYYADSVKGRFTISRDNAKNTVYLQKNSLKPEDSAVYYCNADGFVRRTLRYDYWVQGTQVTVSS” reads “high polyreactivity”; that for “QVQLVESRGVLVQAGGSLRLSCAASGFTFYHYAMGWYRQAPGKDRELVAALDNGGSTYADSVKGRFTISRDNATNTVSLQRNSLKPEDTAVYYCAAVYLRYINGFYFWGQGTQVTVSS”, “low polyreactivity”.
The result for “QVQLVESRRGLVQAGASLRLSCAASGSTFYGYGMGWYRQAPGKERELVAAITGSGDTTYYADSVKGRFTISRDNAKNTVYLQMNSLKPEDTAVYYCNARWHAEYDYWGQGTQVTVSS” reads “low polyreactivity”.
“QVQLVESRRGLVQAGGSLRLSCAGSGRIVSDYAMGWYRQAPGKERELVATITSGDSTNYADSVKGRFTISRDNAKNTVYLQMNSQKPEDTAVYYCNADRFADYDYWGQGTQVTVSS”: the “polyreactivity (PSR sort gate)” value is “low polyreactivity”.
As to “QVQLVESRVGLVQAGGSLRLSCAASGIIFTLYAMGWYRQAPGKERELVAGIDASGGSTSYADSVKGRFTISRDNAKNTVYLQMNSLKPEVTAVYYCAARILPYGYDYWGQGTQVTVSS”, the “polyreactivity (PSR sort gate)” value is “low polyreactivity”.
Then “QVQLVESRWRFVQAGGSLRLSCAASGSIFADYAMGWYRQATGKERELVAAITFSGGSTYYADSVKGRFTISRDNENNTVYLQMNSLKPEDTAVYYCAARWRYRYYSWGQGTQVTVSS”, with “high polyreactivity”; and “QVQLVESSGGLVQAGCSLRLSCAASGFTFGYYAMGWYRQAPGKERELVAAISRSGGRTYYADSVKGRFTISRDKAKNTVYLQMNSLNPEDTAVYYCAAWYVPGYLVDSDYWGQGTQVTVSS”, with “high polyreactivity”.
The result for “QVQLVESVAGLVQAGGSLRLSCAASGSIFRFYAMGWYRQAPGKERELVAGITWSGASTYYADSVKGRFTISRDNAKNTVYLQMNSLKPEDTAVYYCAKRYRLDGFYYWGQGTQVTVSS” reads “high polyreactivity”; that for “QVQLVESVGCLVQAGGSLRLICAASGSIFVDYAMGWYRQAPGKERELVAAISSGGGSTYYADSVKGRFTISRDNSKYTVYLQMNSLKPEDTAVYYCATDLQPRSFLYWYNYWGQGTQVTVSS”, “low polyreactivity”.
The result for “QVQLVESVGCLVQAGGSLRLSCAASGNIITNNAMGWYRQAPGKERELVAAITRGGNTNYADSVKGRFTISRDNAKKTVYLQMKSLKPEDTAVFYCAADRYVELLGYFFEYDYWGQGTQVTVSS” reads “low polyreactivity”; that for “QVQLVESVGDLVQEGGSLRLSCAASGRIFYWYAMGWYRQAPGKETELVAAITSGGSTYYADSVKGRFTISRDNAKNTVYLQMNSLKPEDTAVYYCAKPFSSNSCSHGYWGQGTQVTVSS”, “low polyreactivity”; that for “QVQLVESVGGLDQAGGSLRLRCAASGFIVGYYAMGWYRQAPGKEWEFVAAISWTGGNTYYADSVKGRFTISRDNAKNTVSLQLNSLKPEDTAVYYCNVVVSGYADRDGYNYWGQRTQVTVSS”, “high polyreactivity”.
As to “QVQLVESVGGLDQAGGSLRLSCAASGRIFRQNAMGWYRQAPGKERELVAAISRSGGSTYYADSVKGRFTISRDNAKNTVYLQMNSLKPEDTAVYYCNRDYQSQRTYPRRYDYCGQGTQVTVSS”, the “polyreactivity (PSR sort gate)” value is “low polyreactivity”.
The result for “QVQLVESVGGLDQAGGSLRLSCAASGRTFYRNAMGLYRQAPGKERELVSAITGSGGSTYYADSVKGRFTISRDNAKNTVYLQMNSLKPEDTAVYYCAAGTRIYNSLIGFDYWGQGTQVTVSS” reads “high polyreactivity”; that for “QVQLVESVGGLVEAGGSLRLSCAASGSILGGYAMGWYLQAPGKESELVAAITSSGGRTYYADCVKGRFTMSRDNAKNTVYLQMNSLKPEDTAVYYCAARYSRWRYNYKDYAYWGQGTQVTVSS”, “high polyreactivity”.
Take “QVQLVESVGGLVKAGGSLRLSCAASGSTFRYYSMGWYRPAPGKERELVAGITTGGGRTYYADSVKGRFTISRDNAMNTVYLQMNSLKPEDTAVYSCAADRYSHYWYRNSYDYWGQGTQVTVSS”: the “polyreactivity (PSR sort gate)” value is recorded as “high polyreactivity”.
With “QVQLVESVGGLVQAGASLRLSCAASGFTIDRYAMGWYIQAPAKERELVAAISGSGGRTYYADSVKGRFTISRDNAKNTVYLQMNSLKPEVTAVYYCAAVYLVTRGARYDYCGQGTQVTVSS”, the “polyreactivity (PSR sort gate)” value is “high polyreactivity”.
The result for “QVQLVESVGGLVQAGASLRLSCAASGSIFGYNPMGWYRQAPGKERELVAVINASGASTYYADSVKGRFTISRDNAKNTVYLQMNSLKPEDTAVYYCAKDPFPFPGGDYWGQGTQVTVSS” reads “low polyreactivity”; that for “QVQLVESVGGLVQAGASLRLSCAASGSTFDYYAMGSYRQAPGKERELVAAISRTGGRTYYADSVKGRFTISRDNAKNTVYLQMNSLKPEDTAVYYCNAVTRIGGGDYDYWGQGTQVTVSS”, “low polyreactivity”.
The result for “QVQLVESVGGLVQAGCSLRLSCAASGSIIRTNTMGWYRQAPGKEREFVAAISRSGGSTYYADSVKGRFTISRDNAKNTVYLQMNSLKPEDTAGYYCNARWGLGSYGYWGQGTQVTVSS” reads “high polyreactivity”; that for “QVQLVESVGGLVQAGDSLPLSCAPSAYIFRAYAMGWFRQAPGKASELVAAISSRGGSTYYADSVKGRFTISRDNATQTVYLQMNSLKPEDTAVYYCAAAYRQPYIGYGYWGQGTQVTVTS”, “high polyreactivity”; that for “QVQLVESVGGLVQAGGILRLSCAASGSIFRSYAMGWYRQAPGKERELVAAIRSDGRTNYADSLKGRFTISRDNAKNTVYFPMNRLKPEDTAVYYCAAKAYYSYWRSMDYWGQGTQVTVSS”, “low polyreactivity”.
The result for “QVQLVESVGGLVQAGGRLRLSCDASGFIFANYAMGWYRQATGKERELVAAITSGTGTNYADSVKGRFTISRDNAKNTVYLQMNSLKPEDTAVYYCAAYYTWLSEFGYWGQGTQVTVSS” reads “low polyreactivity”.
Regarding “QVQLVESVGGLVQAGGSLLLSCAASGGIFWVYALGWYRQAPGKVRELVAAISYDTTSTYYADSVKGRFTISRDNAKNTVYLQMNRLKPEDTAVYYCNKTTLLTVEYDYGGQGTQVTVSS”, the “polyreactivity (PSR sort gate)” value is listed as “low polyreactivity”.
The result for “QVQLVESVGGLVQAGGSLPLSCAASGFTFSDYAMGWYRQAPGKESELVAGISSGGYTNYADSVKGRFTISRDNAKNTVYLQMNSLKPEDTAVYYCAAAYYSKFGYWGKGTQVTVSS” reads “high polyreactivity”; that for “QVQLVESVGGLVQAGGSLRISSAASGRTFERNTKGWYRQAPGKERELVAAITYDGGSTYYADSVKGRFTISRDNAKKTVYLKMNSLKPEDTAFYYCNAGGYEIYRSPFDYWGQGSQVTVSS”, “low polyreactivity”; that for “QVQLVESVGGLVQAGGSLRLICAASGRTFRGYAMGWYRQAPGKERELVAAISSSGGRTYYADSVKGRFTISRDNAKNTVYLQMNSLKPEDTAVYYCAAAVTLSPAQYGYWGQGTQVTVSS”, “high polyreactivity”.
The result for “QVQLVESVGGLVQAGGSLRLICAASGYTFSRNAMGWYRPAPGKERELVAVISSGGSTYYADSVKGRFTISRDNAKNTVYLQMNSLKPEDTAVYYCNTGVYRYGYWYDYWGQGTQVTVSS” reads “high polyreactivity”.
